Data taken from US20060058231A1 (Xencor, published 2006).
Where a chain is given by its changes, count along the chain named.

T1: BMPRII receptor-Fc fusion (UniProt Q13873 27-151, limits assumed)
T1 construct: BMP receptor-Fc fusion used at 5 ug/mL
T1 sequence (looked up): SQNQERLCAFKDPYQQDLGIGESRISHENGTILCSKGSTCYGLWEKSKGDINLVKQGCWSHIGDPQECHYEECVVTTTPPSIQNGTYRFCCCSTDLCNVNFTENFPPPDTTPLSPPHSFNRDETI

T2: BMPRIb receptor-Fc fusion (UniProt O00238 14-126)
T2 construct: BMP receptor-Fc fusion used at 5 ug/mL; also called ALK-6
T2 sequence (looked up): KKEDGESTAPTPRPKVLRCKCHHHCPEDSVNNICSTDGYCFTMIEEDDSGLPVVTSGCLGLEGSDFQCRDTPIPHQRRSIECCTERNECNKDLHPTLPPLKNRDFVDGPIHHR

B1: BMP-7 variant K39S (ligand)
chain: STGGKQRSQNRSKTPKNQEALRMASVAENSSSDQRQACSKHELYVSFRDLGWQDWIIAPEGYAAYYCEGECAFPLNSYMNATNHAIVQTLVHFINPETVPKPCCAPTQLNAISVLYFDDSSNVILKKYRNMVVRACGCH
notes: In conditioned media; numbering on mature BMP-7
B2: BMP-7 variant Q53R (ligand)
chain: B1 chain with S39K, Q53R
notes: as for B1
B3: BMP-7 variant L90E (ligand)
chain: B1 chain with S39K, L90E
notes: as for B1
B4: BMP-7 variant R129K (ligand)
chain: B1 chain with S39K, R129K
notes: as for B1
B5: BMP-7 variant L90G (ligand)
chain: B1 chain with S39K, L90G
notes: as for B1
B6: BMP-7 variant M23N (ligand)
chain: B1 chain with M23N, S39K
notes: as for B1
B7: BMP-7 variant L21D (ligand)
chain: B1 chain with L21D, S39K
notes: as for B1
B8: BMP-7 variant Q53K (ligand)
chain: B1 chain with S39K, Q53K
notes: as for B1
B9: BMP-7 variant R48H (ligand)
chain: B1 chain with S39K, R48H
notes: as for B1
B10: BMP-7 variant N76A (ligand)
chain: B1 chain with S39K, N76A
notes: as for B1
B11: BMP-7 variant L21G (ligand)
chain: B1 chain with L21G, S39K
notes: as for B1
B12: BMP-7 variant N76T (ligand)
chain: B1 chain with S39K, N76T
notes: as for B1
B13: BMP-7 variant L90T (ligand)
chain: B1 chain with S39K, L90T
notes: as for B1
B14: BMP-7 variant K126Q (ligand)
chain: B1 chain with S39K, K126Q
notes: as for B1
B15: BMP-7 variant N76Y (ligand)
chain: B1 chain with S39K, N76Y
notes: as for B1
B16: BMP-7 variant Q53G (ligand)
chain: B1 chain with S39K, Q53G
notes: as for B1
B17: BMP-7 variant M23S (ligand)
chain: B1 chain with M23S, S39K
notes: as for B1
B18: BMP-7 variant L90H (ligand)
chain: B1 chain with S39K, L90H
notes: as for B1
B19: BMP-7 variant Q53D (ligand)
chain: B1 chain with S39K, Q53D
notes: as for B1
B20: BMP-7 variant L90P (ligand)
chain: B1 chain with S39K, L90P
notes: as for B1
B21: BMP-7 variant R129D (ligand)
chain: B1 chain with S39K, R129D
notes: as for B1
B22: BMP-7 variant L21R (ligand)
chain: B1 chain with L21R, S39K
notes: as for B1
B23: BMP-7 variant K126E (ligand)
chain: B1 chain with S39K, K126E
notes: as for B1
B24: BMP-7 variant R48Q (ligand)
chain: B1 chain with S39K, R48Q
notes: as for B1
B25: BMP-7 variant Q53S (ligand)
chain: B1 chain with S39K, Q53S
notes: as for B1
B26: BMP-7 variant L21N (ligand)
chain: B1 chain with L21N, S39K
notes: as for B1
B27: BMP-7 variant N76S (ligand)
chain: B1 chain with S39K, N76S
notes: as for B1
B28: BMP-7 variant R48N (ligand)
chain: B1 chain with S39K, R48N
notes: as for B1
B29: BMP-7 variant Q53E (ligand)
chain: B1 chain with S39K, Q53E
notes: as for B1
B30: BMP-7 variant N76D (ligand)
chain: B1 chain with S39K, N76D
notes: as for B1

Biological target: T3, ActRIIa receptor-Fc fusion (UniProt P27037 20-134, limits assumed)
T3 construct: BMP receptor-Fc fusion used at 5 ug/mL
Experiment: ELISA-like plate assay, captured BMP-7 from conditioned media, receptor-Fc detection

T3 sequence (P27037 20-134 limits assumed): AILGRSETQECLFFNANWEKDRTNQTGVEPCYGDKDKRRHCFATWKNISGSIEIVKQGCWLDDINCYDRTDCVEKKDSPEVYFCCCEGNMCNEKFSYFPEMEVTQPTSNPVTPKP

Row | ActRIIa binding (relative to wild type = 1.0) | Binder
1 | 1.04 relative to wild type | B1
2 | 0.81 relative to wild type | B2
3 | 0.24 relative to wild type | B3
4 | 1.12 relative to wild type | B4
5 | 0.87 relative to wild type | B5
6 | 0.94 relative to wild type | B6
7 | 0.94 relative to wild type | B7
8 | 0.73 relative to wild type | B8
9 | 1.02 relative to wild type | B9
10 | 0.96 relative to wild type | B10
11 | 1.5 relative to wild type | B11
12 | 1.11 relative to wild type | B12
13 | 0.66 relative to wild type | B13
14 | 0.81 relative to wild type | B14
15 | 0.92 relative to wild type | B15
16 | 0.99 relative to wild type | B16
17 | 2.2 relative to wild type | B17
18 | 0.47 relative to wild type | B18
19 | 0.89 relative to wild type | B19
20 | 0.75 relative to wild type | B20
21 | 1.13 relative to wild type | B21
22 | 0.84 relative to wild type | B22
23 | 0.26 relative to wild type | B23
24 | 0.8 relative to wild type | B24
25 | 1.04 relative to wild type | B25
26 | 1.03 relative to wild type | B26
27 | 0.99 relative to wild type | B27
28 | 0.93 relative to wild type | B28
29 | 0.98 relative to wild type | B29
30 | 1.13 relative to wild type | B30

Biological target: T1, BMPRII receptor-Fc fusion
Experiment: as above

Row | BMPRII binding (relative to wild type = 1.0) | Binder
31 | 1.37 relative to wild type | B1
32 | 0.96 relative to wild type | B2
33 | 0.18 relative to wild type | B3
34 | 0.78 relative to wild type | B4
35 | 0.28 relative to wild type | B5
36 | 0.9 relative to wild type | B6
37 | 0.94 relative to wild type | B7
38 | 0.14 relative to wild type | B8
39 | 0.58 relative to wild type | B9
40 | 0.95 relative to wild type | B10
41 | 2.3 relative to wild type | B11
42 | 0.97 relative to wild type | B12
43 | 0.29 relative to wild type | B13
44 | 0.28 relative to wild type | B14
45 | 0.6 relative to wild type | B15
46 | 1.37 relative to wild type | B16
47 | 2.41 relative to wild type | B17
48 | 0.2 relative to wild type | B18
49 | 1.01 relative to wild type | B19
50 | 0.17 relative to wild type | B20
51 | 1.86 relative to wild type | B21
52 | 0.66 relative to wild type | B22
53 | 0 relative to wild type | B23
54 | 0.15 relative to wild type | B24
55 | 1.26 relative to wild type | B25
56 | 1.73 relative to wild type | B26
57 | 0.98 relative to wild type | B27
58 | 0.13 relative to wild type | B28
59 | 0.72 relative to wild type | B29
60 | 0.87 relative to wild type | B30

Biological target: T2, BMPRIb receptor-Fc fusion
Experiment: as above

Row | BMPRIb binding (relative to wild type = 1.0) | Binder
61 | 2.23 relative to wild type | B1
62 | 1.41 relative to wild type | B2
63 | 0.27 relative to wild type | B3
64 | 0.77 relative to wild type | B4
65 | 0.65 relative to wild type | B5
66 | 1.36 relative to wild type | B6
67 | 1.52 relative to wild type | B7
68 | 2.03 relative to wild type | B8
69 | 3.58 relative to wild type | B9
70 | 0.81 relative to wild type | B10
71 | 3.65 relative to wild type | B11
72 | 0.98 relative to wild type | B12
73 | 0.64 relative to wild type | B13
74 | 0.57 relative to wild type | B14
75 | 0.46 relative to wild type | B15
76 | 3.95 relative to wild type | B16
77 | 1.09 relative to wild type | B17
78 | 0.55 relative to wild type | B18
79 | 3.74 relative to wild type | B19
80 | 0.52 relative to wild type | B20
81 | 1.16 relative to wild type | B21
82 | 1.01 relative to wild type | B22
83 | 0.22 relative to wild type | B23
84 | 0.85 relative to wild type | B24
85 | 0.68 relative to wild type | B25
86 | 2.81 relative to wild type | B26
87 | 0.85 relative to wild type | B27
88 | 0.43 relative to wild type | B28
89 | 2.78 relative to wild type | B29
90 | 0.8 relative to wild type | B30

Biological target: T4, BMPRIa receptor-Fc fusion (UniProt P36894 24-152, limits assumed)
T4 construct: also called ALK-3
Experiment: as above

T4 sequence (P36894 24-152 limits assumed): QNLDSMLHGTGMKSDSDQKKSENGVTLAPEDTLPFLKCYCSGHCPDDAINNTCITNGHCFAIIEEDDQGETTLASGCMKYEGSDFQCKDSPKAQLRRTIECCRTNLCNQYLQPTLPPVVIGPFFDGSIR

Row | BMPRIa binding (relative to wild type = 1.0) | Binder
91 | 2.77 relative to wild type | B1
92 | 1.26 relative to wild type | B2
93 | 0.2 relative to wild type | B3
94 | 0.69 relative to wild type | B4
95 | 0.55 relative to wild type | B5
96 | 0.98 relative to wild type | B6
97 | 1.01 relative to wild type | B7
98 | 0.7 relative to wild type | B8
99 | 3.15 relative to wild type | B9
100 | 0.79 relative to wild type | B10
101 | 2.53 relative to wild type | B11
102 | 0.94 relative to wild type | B12
103 | 0.48 relative to wild type | B13
104 | 0.46 relative to wild type | B14
105 | 0.46 relative to wild type | B15
106 | 3.7 relative to wild type | B16
107 | 0.88 relative to wild type | B17
108 | 0.36 relative to wild type | B18
109 | 2.2 relative to wild type | B19
110 | 0.46 relative to wild type | B20
111 | 0.93 relative to wild type | B21
112 | 0.83 relative to wild type | B22
113 | 0.23 relative to wild type | B23
114 | 1.06 relative to wild type | B24
115 | 0.66 relative to wild type | B25
116 | 1.57 relative to wild type | B26
117 | 0.76 relative to wild type | B27
118 | 1.87 relative to wild type | B28
119 | 2.3 relative to wild type | B29
120 | 0.84 relative to wild type | B30
